Biological target: purified C3b (Complement Technology, Inc. #A114), P01024
Sequence (P01024 whole entry, looked up): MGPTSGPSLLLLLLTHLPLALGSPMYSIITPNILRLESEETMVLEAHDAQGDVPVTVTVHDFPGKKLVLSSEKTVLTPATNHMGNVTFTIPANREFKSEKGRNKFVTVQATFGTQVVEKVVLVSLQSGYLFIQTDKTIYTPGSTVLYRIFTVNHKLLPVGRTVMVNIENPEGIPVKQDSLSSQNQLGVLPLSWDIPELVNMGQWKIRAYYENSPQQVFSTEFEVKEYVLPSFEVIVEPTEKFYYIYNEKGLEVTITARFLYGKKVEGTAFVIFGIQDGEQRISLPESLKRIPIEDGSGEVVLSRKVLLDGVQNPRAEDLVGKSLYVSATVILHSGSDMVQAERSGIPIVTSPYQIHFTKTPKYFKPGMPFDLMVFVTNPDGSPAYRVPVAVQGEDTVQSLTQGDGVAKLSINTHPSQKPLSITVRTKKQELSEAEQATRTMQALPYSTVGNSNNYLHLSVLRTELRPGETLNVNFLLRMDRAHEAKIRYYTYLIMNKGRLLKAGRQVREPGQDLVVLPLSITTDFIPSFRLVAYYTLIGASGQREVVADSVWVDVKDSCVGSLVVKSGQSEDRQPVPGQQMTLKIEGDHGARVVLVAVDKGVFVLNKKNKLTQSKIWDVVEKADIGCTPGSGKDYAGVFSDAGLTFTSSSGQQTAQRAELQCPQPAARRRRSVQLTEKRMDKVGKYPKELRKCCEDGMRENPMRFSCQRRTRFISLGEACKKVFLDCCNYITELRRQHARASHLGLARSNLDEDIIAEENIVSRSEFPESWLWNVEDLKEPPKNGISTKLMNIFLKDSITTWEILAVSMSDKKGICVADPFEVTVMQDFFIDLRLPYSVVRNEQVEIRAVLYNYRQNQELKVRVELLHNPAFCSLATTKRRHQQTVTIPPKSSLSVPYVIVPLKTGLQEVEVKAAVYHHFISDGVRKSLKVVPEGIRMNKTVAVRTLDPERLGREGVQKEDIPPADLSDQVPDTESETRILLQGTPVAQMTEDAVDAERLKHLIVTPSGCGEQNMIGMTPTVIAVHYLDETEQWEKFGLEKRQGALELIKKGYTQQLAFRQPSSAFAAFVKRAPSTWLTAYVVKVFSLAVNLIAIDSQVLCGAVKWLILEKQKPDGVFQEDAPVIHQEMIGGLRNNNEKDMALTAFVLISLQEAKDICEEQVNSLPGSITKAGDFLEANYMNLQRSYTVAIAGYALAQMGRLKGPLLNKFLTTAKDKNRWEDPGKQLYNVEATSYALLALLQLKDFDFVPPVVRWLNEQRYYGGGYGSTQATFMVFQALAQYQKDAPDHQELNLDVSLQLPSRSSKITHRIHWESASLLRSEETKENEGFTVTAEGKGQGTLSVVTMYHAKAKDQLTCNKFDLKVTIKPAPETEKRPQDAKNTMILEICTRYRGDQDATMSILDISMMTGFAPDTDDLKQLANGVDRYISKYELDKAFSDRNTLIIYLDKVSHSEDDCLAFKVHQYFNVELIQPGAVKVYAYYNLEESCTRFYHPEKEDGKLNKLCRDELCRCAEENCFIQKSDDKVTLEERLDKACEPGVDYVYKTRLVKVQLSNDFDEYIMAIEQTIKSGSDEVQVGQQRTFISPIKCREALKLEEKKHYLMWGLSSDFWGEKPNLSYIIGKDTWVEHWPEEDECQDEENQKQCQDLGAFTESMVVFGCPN

B1: human Complement Factor I (hCFI) expressed from the AAV-CFI-1.0 vector, secreted into cell media of transduced rabbit retinal explants (protein)
chain: KVTYTSQEDLVEKKCLAKKYTHLSCDKVFCQPWQRCIEGTCVCKLPYQCPKNGTAVCATNRRSFPTYCQQKSLECLHPGTKFLNNGTCTAEGKFSVSLKHGNTDSEGIVEVKLVDQDKTMFICKSSWSMREANVACLDLGFQQGADTQRRFKLSDLSINSTECLHVHCRGLETSLAECTFTKRRTMGYQDFADVVCYTQKADSPMDDFFQCVNGKYISQMKACDGINDCGDQSDELCCKACQGKGFHCKSGVCIPSQYQCNGEVDCITGEDEVGCAGFASVTQEETEILTADMDAERRRIKSLLPKLSCGVKNRMHIRRKRIVGGKRAQLGDLPWQVAIKDASGITCGGIYIGGCWILTAAHCLRASKTHRYQIWTTVVDWIHPDLKRIVIEYVDRIIFHENYNAGTYQNDIALIEMKKDGNKKDCELPRSIPACVPWSPYLFQPNDTCIVSGWGREKDNERVFSLQWGEVKLISNCSKFYGNRFYEKEMECAGTYDGSIDACKGDSGGPLVCMDANNVTYVWGVVSWGENCGKPEFPGVYTKVANYFDWISYHVGRPFISQYNV
C3b cleavage assay (Western blot stained with anti-C3 antibody; appearance of iC3b 68 kDa and 43 kDa bands), in the presence of purified CFH: The iC3b 43 kDa polypeptide is present in all lanes containing cell media from rabbit explants transduced with AAV-CFI-1.0 package into either AAV2.7m8 or AAV2.5T-LSV1 capsid serotypes

— patent US20260199522
